Consider 1 molecule from article PMC12064060 (mAbs, 2025).

The test addresses Nb4 × 3 (trimeric Nb4, three VHH domains in tandem) (dromedary). The test can be described thus: ELISA.

B1: SARS-CoV-1 RBD-Fc (Fc fusion)
chain: not shown
For B1, the binding result is “binds”.
